This data set has as its system Escherichia coli TOP10. The experiment in a line: shrunken log2 fold change of peptide-encoding DNA abundance (4.5 h post-induction vs induction); higher = less antimicrobial activity (less host growth inhibition). The settings on record: time post-induction: 4.5 h; library: site-saturation at positions 5, 18, 19, 20.
For RRIRMRPPRLPRPRPRPRGEPRP, the “shrunken log2 fold change” value came to 0.0602. Then RRIRPRPPRLPRPRPRPVAGPRP, with 0.308; and RRIRFRPPRLPRPRPRPGNKPRP, with -0.344; and RRIRKRPPRLPRPRPRPAQPPRP, with 0.764. On to RRIRFRPPRLPRPRPRPHEQPRP, for which the “shrunken log2 fold change” value worked out at 0.0928. Regarding RRIRMRPPRLPRPRPRPIKMPRP, the “shrunken log2 fold change” value was 0.14. Then RRIRRRPPRLPRPRPRPARVPRP, with 0.349; and RRIRCRPPRLPRPRPRPKHFPRP, with -0.209. As for RRIRFRPPRLPRPRPRPFCSPRP, the figure is -0.486; as for RRIRVRPPRLPRPRPRPDVVPRP, -0.36. In the case of RRIRSRPPRLPRPRPRPAIIPRP, the “shrunken log2 fold change” value was 0.0969. Then RRIRVRPPRLPRPRPRPGTEPRP, with 0.0578. On to RRIRHRPPRLPRPRPRPMWCPRP, for which the “shrunken log2 fold change” value is -0.187. Then RRIRKRPPRLPRPRPRPAGKPRP, with 0.582. For the sequence RRIRKRPPRLPRPRPRPIEHPRP, the “shrunken log2 fold change” value was determined as 0.332. Regarding RRIRDRPPRLPRPRPRPPGMPRP, the “shrunken log2 fold change” value was found to be 0.201. Then RRIRDRPPRLPRPRPRPKMMPRP, with -0.154. Take RRIRNRPPRLPRPRPRPPGIPRP: the “shrunken log2 fold change” value was -0.0351. Consider RRIRYRPPRLPRPRPRPDAHPRP, for which the “shrunken log2 fold change” value is -0.0156. As for RRIRIRPPRLPRPRPRPMHGPRP, the figure is -0.216; as for RRIRSRPPRLPRPRPRPLSPPRP, 0.0487; as for RRIRQRPPRLPRPRPRPHHWPRP, -0.0737. As for RRIRWRPPRLPRPRPRPLCAPRP, the figure is 0.776; as for RRIRRRPPRLPRPRPRPTTYPRP, -0.221; as for RRIRKRPPRLPRPRPRPVQRPRP, 0.0869. With RRIRFRPPRLPRPRPRPMSAPRP, the “shrunken log2 fold change” value was -0.105.

On to RRIRIRPPRLPRPRPRPYCLPRP, for which the “shrunken log2 fold change” value is -0.259. Then RRIRYRPPRLPRPRPRPSRSPRP, with 0.134. As for RRIRTRPPRLPRPRPRPERRPRP, the figure is 0.0791. Then RRIRARPPRLPRPRPRPCKKPRP, with -0.0968. Regarding RRIRPRPPRLPRPRPRPFDCPRP, the “shrunken log2 fold change” value was -0.52.

With RRIRPRPPRLPRPRPRPGITPRP, the “shrunken log2 fold change” value was -0.138. Then RRIRPRPPRLPRPRPRPQYVPRP, with -0.184; and RRIRCRPPRLPRPRPRPVYCPRP, with -0.755. In the case of RRIRRRPPRLPRPRPRPMRNPRP, the “shrunken log2 fold change” value turned out to be 0.959. Then RRIRERPPRLPRPRPRPCKYPRP, with 3.12; and RRIRARPPRLPRPRPRPNGAPRP, with 0.0281; and RRIRPRPPRLPRPRPRPQFAPRP, with 0.218. As for RRIRHRPPRLPRPRPRPFRVPRP, the figure is -0.371. As to RRIRFRPPRLPRPRPRPCTIPRP, the “shrunken log2 fold change” value was -0.15. Then RRIRKRPPRLPRPRPRPAECPRP, with 0.33. As for RRIRLRPPRLPRPRPRPTCCPRP, the figure is -0.013; as for RRIRHRPPRLPRPRPRPDYFPRP, 0.0294; as for RRIRERPPRLPRPRPRPEMGPRP, -0.116.

For the sequence RRIRPRPPRLPRPRPRPSCKPRP, the “shrunken log2 fold change” value is -0.189. As for RRIRCRPPRLPRPRPRPLLNPRP, the figure is -0.39; as for RRIRWRPPRLPRPRPRPISNPRP, -0.0292. As for RRIRHRPPRLPRPRPRPRANPRP, the figure is 0.177; as for RRIRWRPPRLPRPRPRPQVYPRP, -0.015. As for RRIRFRPPRLPRPRPRPTVTPRP, the figure is 0.052.

As to RRIRLRPPRLPRPRPRPKYQPRP, the “shrunken log2 fold change” value was -0.141. As for RRIRRRPPRLPRPRPRPSVMPRP, the figure is 0.157; as for RRIRSRPPRLPRPRPRPIGNPRP, -0.234. As for RRIRRRPPRLPRPRPRPLTRPRP, the figure is 0.234. Then RRIRGRPPRLPRPRPRPINFPRP, with -0.189.

Take RRIRMRPPRLPRPRPRPPNFPRP: the “shrunken log2 fold change” value worked out at 0.35. Then RRIRQRPPRLPRPRPRPQFCPRP, with -0.142; and RRIRARPPRLPRPRPRPSPTPRP, with 0.328. Then RRIRLRPPRLPRPRPRPMIRPRP, with -0.154; and RRIRKRPPRLPRPRPRPTMKPRP, with -0.0364; and RRIRMRPPRLPRPRPRPSNLPRP, with 0.00954. For RRIRVRPPRLPRPRPRPMEQPRP, the “shrunken log2 fold change” value is -0.033. As for RRIRNRPPRLPRPRPRPIRKPRP, the figure is -0.0111. As for RRIRKRPPRLPRPRPRPERDPRP, the figure is 0.621. Then RRIRYRPPRLPRPRPRPLPVPRP, with -0.142; and RRIRFRPPRLPRPRPRPFHIPRP, with -0.663; and RRIRLRPPRLPRPRPRPCPHPRP, with -0.0552. As for RRIRFRPPRLPRPRPRPCWKPRP, the “shrunken log2 fold change” value is -0.0141. Then RRIRKRPPRLPRPRPRPPFNPRP, with 0.0386; and RRIRLRPPRLPRPRPRPRYAPRP, with 0.00198; and RRIRIRPPRLPRPRPRPSAVPRP, with -0.306.

Turning to RRIRARPPRLPRPRPRPPCSPRP, the “shrunken log2 fold change” value was 0.752. As for RRIRTRPPRLPRPRPRPSVDPRP, the figure is -0.108; as for RRIRMRPPRLPRPRPRPHHSPRP, -0.236; as for RRIRERPPRLPRPRPRPFIHPRP, -1.12. As to RRIRSRPPRLPRPRPRPKCRPRP, the “shrunken log2 fold change” value stood at 0.0128. As for RRIRPRPPRLPRPRPRPRFIPRP, the figure is -0.184. Then RRIRYRPPRLPRPRPRPKNNPRP, with -1.02. Take RRIRGRPPRLPRPRPRPPSLPRP: the “shrunken log2 fold change” value is 0.477. As for RRIRDRPPRLPRPRPRPSECPRP, the figure is -0.043; as for RRIRMRPPRLPRPRPRPGWYPRP, -0.277. Take RRIRRRPPRLPRPRPRPTFTPRP: the “shrunken log2 fold change” value was 0.128.

Turning to RRIRERPPRLPRPRPRPNFYPRP, the “shrunken log2 fold change” value is -0.261. Then RRIRVRPPRLPRPRPRPWKMPRP, with -0.148; and RRIRDRPPRLPRPRPRPPFRPRP, with 0.126; and RRIRPRPPRLPRPRPRPDEDPRP, with 0.00574. As for RRIRSRPPRLPRPRPRPNDVPRP, the figure is -0.134; as for RRIRNRPPRLPRPRPRPPAYPRP, 0.0856; as for RRIRIRPPRLPRPRPRPIPGPRP, -0.191. As for RRIRRRPPRLPRPRPRPLNLPRP, the figure is 0.0248; as for RRIRFRPPRLPRPRPRPYFAPRP, -0.572. On to RRIRGRPPRLPRPRPRPNLHPRP, for which the “shrunken log2 fold change” value came out at 0.303.

Take RRIRDRPPRLPRPRPRPIYPPRP: the “shrunken log2 fold change” value was -1.42. Then RRIRCRPPRLPRPRPRPEDDPRP, with 0.159. As for RRIRTRPPRLPRPRPRPTRAPRP, the figure is 0.687; as for RRIRQRPPRLPRPRPRPESFPRP, 0.0552.

Regarding RRIRTRPPRLPRPRPRPWQDPRP, the “shrunken log2 fold change” value was -0.326.

With RRIRFRPPRLPRPRPRPGLEPRP, the “shrunken log2 fold change” value is -0.0646. As for RRIRIRPPRLPRPRPRPYSGPRP, the figure is 0.00727; as for RRIRKRPPRLPRPRPRPVVQPRP, 0.242. Then RRIRERPPRLPRPRPRPRMVPRP, with -0.462. As for RRIRFRPPRLPRPRPRPWDAPRP, the figure is -0.12. Regarding RRIRNRPPRLPRPRPRPCLNPRP, the “shrunken log2 fold change” value is -0.0299. Take RRIRQRPPRLPRPRPRPTPRPRP: the “shrunken log2 fold change” value is 0.843. As for RRIRSRPPRLPRPRPRPESAPRP, the figure is 0.278; as for RRIRERPPRLPRPRPRPGDCPRP, -0.0777.

In the case of RRIRWRPPRLPRPRPRPFVMPRP, the “shrunken log2 fold change” value was -1.01. Then RRIRKRPPRLPRPRPRPCNAPRP, with -0.0429; and RRIRQRPPRLPRPRPRPINCPRP, with -0.384. For RRIRTRPPRLPRPRPRPAVNPRP, the “shrunken log2 fold change” value came out at 0.000461.

RRIRIRPPRLPRPRPRPIQVPRP: the “shrunken log2 fold change” value was -0.071. Then RRIRTRPPRLPRPRPRPVPWPRP, with 0.95; and RRIRFRPPRLPRPRPRPCIMPRP, with -0.953; and RRIRCRPPRLPRPRPRPQKGPRP, with -0.133. Then RRIRLRPPRLPRPRPRPYMTPRP, with -0.82. Then RRIRKRPPRLPRPRPRPQAGPRP, with -0.00963; and RRIRCRPPRLPRPRPRPPEHPRP, with 0.0824. Regarding RRIRCRPPRLPRPRPRPFMNPRP, the “shrunken log2 fold change” value was -0.00951. Then RRIRERPPRLPRPRPRPECHPRP, with 0.0213; and RRIRVRPPRLPRPRPRPRLEPRP, with 0.138; and RRIRCRPPRLPRPRPRPYYEPRP, with -1.27. As for RRIRHRPPRLPRPRPRPQEHPRP, the figure is -0.389; as for RRIRLRPPRLPRPRPRPQHRPRP, -0.0199; as for RRIRGRPPRLPRPRPRPTSCPRP, 0.401. Then RRIRMRPPRLPRPRPRPCYVPRP, with -0.506.

Values taken from the supplement of paper PMC9112550, “Optimization of the antimicrobial peptide Bac7 by deep mutational scanning” (BMC Biology, 2022).
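Also: peptides expressed intracellularly from a pBAD plasmid library in pooled LB shake-flask culture, induced with 0.3% L-arabinose, DNA abundance read by NGS, three biological replicates, DESeq2 with apeglm shrinkage.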
